The values that follow come from patent US20030207838A1.

The experiment concerns the target Fas (CD95) expressed on vascular smooth muscle cells (human) (UniProt P25445). Nature of the experiment: cell-based or functional assay.
UniProt P25445, sequence (P25445 26-335): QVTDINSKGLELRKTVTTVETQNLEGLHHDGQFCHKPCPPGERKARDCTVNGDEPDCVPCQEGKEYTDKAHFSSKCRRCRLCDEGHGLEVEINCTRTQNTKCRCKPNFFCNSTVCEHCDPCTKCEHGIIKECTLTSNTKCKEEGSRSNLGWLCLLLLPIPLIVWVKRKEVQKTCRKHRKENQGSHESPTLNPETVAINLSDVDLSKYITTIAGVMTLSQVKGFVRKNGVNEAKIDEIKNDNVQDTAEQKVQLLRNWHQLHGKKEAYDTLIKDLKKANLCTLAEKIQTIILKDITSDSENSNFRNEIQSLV

“anti-Fas antibody IgM clone CH-11 (05-201 Upstate)” displayed a percent of apoptotic cells (hypodiploid DNA content) 16 h after treatment, A20-expressing SMC of 33%; a percent of apoptotic cells (hypodiploid DNA content) 16 h after αFas treatment, non-infected (NI) SMC of 1.9%; a percent of apoptotic cells (hypodiploid DNA content) 16 h after αFas treatment, rAd.β-gal-infected SMC of 2.34%; a percent of apoptotic cells after αFas with Actinomycin D (150 nM), NI and rAd.β-gal infected SMC of 28 to 35%.
